Results as given in the supplement of paper PMC6757056.
± gives the standard deviation of the averaged measurements.

B1: library; a variant is named by its letters at N, in order (parent)
chain: GCUGUCACCGGUGUAUUACCCUAGUGGUCGACCGGUCUGAUGAGUCUNNNNNNAGACGAAACAGC

How the values were obtained:
[1] = variants of: B1; test: FACS-Seq fitted mean relative fluorescence mCherry/BFP without ligand (log10 relative fluorescence); ligand: hypoxanthine (xanthine aptamer); higher = higher reporter protein expression; conditions: HEK293T, ligand present: no
Outline: (§1)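 Cells were sorted into 6 bins on the mCherry/BFP ratio after 48 h with or without ligand. These were enriched HEK293T cells transduced by lentivirus with a ribozyme-switch mCherry reporter plus an EF1α-BFP marker. Fluorescence was obtained by fitting a normal distribution to sequencing-derived bin counts. Counts came from MiSeq sequencing of PCR-amplified, barcoded genomic DNA, binned by log10(mCherry/BFP), with means scaled to five spiked-in control ribozymes.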

[2] = variants of: B1; test: normalized RNA/DNA level with ligand (relative to sTRSVctl = 100) (log10 (% of sTRSVctl)); ligand: hypoxanthine (xanthine aptamer); higher = less ribozyme self-cleavage, higher mRNA level; conditions: ligand concentration (+) RNA-Seq: 5 mM, HEK293T, reporter: mCherry (pCS4076), ligand present: yes
Outline: (§2)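 Ribozyme switch library plasmids with mCherry reporters (eGFP in certain ligand experiments) went into HEK293T cells at 4 µg per 6-well well. Where ligand was used, it was applied 1 h before transfection, and total RNA was extracted with EDTA 72 h later for reverse transcription, amplification, barcoding and sequencing. RNA level is the RNA-to-DNA read ratio normalized to a spiked-in non-cleaving sequence or to the leading sequences, then scaled and log-transformed. Scaling was ×100 with log10, the leading set comprised 25 sequences, and the cutoff was ≥100 DNA reads.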

[3] = variants of: B1; test: normalized RNA/DNA level without ligand (relative to sTRSVctl = 100) (log10 (% of sTRSVctl)); ligand: hypoxanthine (xanthine aptamer); higher = less ribozyme self-cleavage, higher mRNA level; conditions: HEK293T, reporter: mCherry (pCS4076), ligand present: no
Outline: as §2

[4] = variants of: B1; test: FACS-Seq fitted mean relative fluorescence mCherry/BFP with ligand (log10 relative fluorescence); ligand: hypoxanthine (xanthine aptamer); ligand concentration (+) FACS-Seq: 5 mM; higher = higher reporter protein expression; conditions: HEK293T, ligand present: yes
Outline: as §1

Variant	FACS-Seq fitted mean (log10) [1]	normalized RNA/DNA level with ligand (log10) [2]	normalized RNA/DNA level without ligand (log10) [3]	FACS-Seq fitted mean (log10) [4]
AUAGGA	0.382 ± 0.011	1.9 ± 0.042	1.658 ± 0.015	0.529 ± 0.017
AUAGGG	0.023 ± 0.0025	1.807 ± 0.011	1.38 ± 0.0023	0.46 ± 0.053
CUAUUC	0.8316 ± 0.0023	2 ± 0.02	1.84 ± 0.055	0.762 ± 0.023
CUAUUA	0.569 ± 0.023	1.942 ± 0.019	1.85 ± 0.054	0.484 ± 0.053
CUAUUG	0.179 ± 0.031	1.95 ± 0.048	1.843 ± 0.0087	0.763 ± 0.041
GUCAUG	0.242 ± 0.025	1.9 ± 0.027	1.53 ± 0.025	0.491 ± 0.014
CUCCAU	-0.247 ± 0.08	1.96 ± 0.023	1.8932 ± 0.0013	0.134 ± 0.038
AUACUA	0.515 ± 0.014	1.9061 ± 0.00059	1.774 ± 0.001	0.512 ± 0.018
AUACUG	0.294 ± 0.022	1.86 ± 0.077	1.43 ± 0.088	0.634 ± 0.025
GUAGUG	0.125 ± 0.029	1.94 ± 0.037	1.428 ± 0.0021	0.532 ± 0.051
GUAGUA	0.68 ± 0.083	1.899 ± 0.01	1.749 ± 0.014	0.725 ± 0.029
GUAUUG	-0.148 ± 0.011	1.882 ± 0.011	1.45 ± 0.1	0.209 ± 0.0066
UUCCAC	0.451 ± 0.048	1.97 ± 0.077	1.88 ± 0.027	0.5314 ± 0.0026
AUAUAC	0.568 ± 0.087	1.88 ± 0.019	1.8 ± 0.069	0.572 ± 0.028
AUAUAG	0.389 ± 0.046	1.83 ± 0.03	1.54 ± 0.057	0.611 ± 0.076
AUAUAA	0.487 ± 0.056	1.883 ± 0.015	1.77 ± 0.027	0.6452 ± 0.0064
GUAAUC	0.801 ± 0.026	1.95 ± 0.046	1.756 ± 0.012	0.81 ± 0.068
GUAAUG	0.27 ± 0.022	1.853 ± 0.0059	1.52 ± 0.028	0.529 ± 0.0072
GUAAUU	0.444 ± 0.086	1.91 ± 0.047	1.9 ± 0.025	0.229 ± 0.036
GUACAA	-0.152 ± 0.025	1.91 ± 0.035	1.76 ± 0.064	0.27 ± 0.051
GUACAG	0.688 ± 0.084	1.87 ± 0.071	1.45 ± 0.07	0.818 ± 0.08
AUAAGU	0.122 ± 0.094	1.852 ± 0.0077	1.629 ± 0.011	0.279 ± 0.058
AUAUCG	0.607 ± 0.0094	1.86 ± 0.065	1.44 ± 0.045	0.756 ± 0.042
AUACAG	0.1 ± 0.018	1.814 ± 0.017	1.45 ± 0.039	0.561 ± 0.031

Variant	FACS-Seq fitted mean (log10) [1]	normalized RNA/DNA level with ligand (log10) [2]	normalized RNA/DNA level without ligand (log10) [3]	FACS-Seq fitted mean (log10) [4]
AUACAA	0.364 ± 0.062	1.9 ± 0.037	1.76 ± 0.024	0.532 ± 0.013
AUACAC	0.399 ± 0.093	1.915 ± 0.019	1.762 ± 0.0072	0.456 ± 0.1
UUACAC	0.362 ± 0.025	1.92 ± 0.079	1.81 ± 0.025	0.444 ± 0.051
UUACAU	0.352 ± 0.018	1.93 ± 0.051	1.87 ± 0.026	0.453 ± 0.11
CUAGGA	0.7992 ± 0.0063	1.938 ± 0.0084	1.859 ± 0.018	0.697 ± 0.022
CUAGGG	0.0497 ± 0.042	1.89 ± 0.035	1.53 ± 0.028	0.294 ± 0.039
AUCAAG	0.0695 ± 0.06	1.85 ± 0.043	1.5 ± 0.06	0.339 ± 0.047
AUCCUG	0.0565 ± 0.03	1.944 ± 0.013	1.54 ± 0.086	0.437 ± 0.048
AUCCUC	-0.169 ± 0.0024	2.021 ± 0.0097	1.97 ± 0.04	-0.394 ± 0.056
AUAGAA	0.429 ± 0.005	1.87 ± 0.089	1.705 ± 0.0096	0.6216 ± 0.0039
AUAGAC	0.72 ± 0.12	1.88 ± 0.035	1.8 ± 0.018	0.755 ± 0.051
UUAUGA	-0.0342 ± 0.015	1.91 ± 0.04	1.64 ± 0.039	-0.0882 ± 0.046
UUAUGG	0.281 ± 0.094	1.89 ± 0.032	1.666 ± 0.015	0.317 ± 0.05
AUACGG	-0.0504 ± 0.059	1.785 ± 0.012	1.27 ± 0.082	0.547 ± 0.084
AUACGC	0.365 ± 0.04	1.91 ± 0.056	1.72 ± 0.042	0.5194 ± 0.0036
GUACGG	-0.0891 ± 0.011	1.893 ± 0.016	1.4 ± 0.048	0.337 ± 0.062
GUACGU	0.418 ± 0.03	1.8918 ± 0.0012	1.78 ± 0.067	0.626 ± 0.09
UUCGGU	0.323 ± 0.015	1.93 ± 0.044	1.78 ± 0.036	0.492 ± 0.007
AUAUGG	-0.462 ± 0.062	1.802 ± 0.0067	1.374 ± 0.0022	-0.111 ± 0.04
AUAUGU	0.416 ± 0.0064	1.886 ± 0.0057	1.68 ± 0.054	0.511 ± 0.015
AUAUGA	0.609 ± 0.0086	1.924 ± 0.0023	1.7 ± 0.02	0.758 ± 0.018
UUAGAA	0.092 ± 0.0099	1.89 ± 0.043	1.694 ± 0.0073	0.285 ± 0.021
CUCGAA	0.449 ± 0.073	1.92 ± 0.068	1.75 ± 0.037	0.395 ± 0.041
CUCGAU	0.5204 ± 0.0026	1.93 ± 0.017	1.83 ± 0.081	0.642 ± 0.061

Variant	FACS-Seq fitted mean (log10) [1]	normalized RNA/DNA level with ligand (log10) [2]	normalized RNA/DNA level without ligand (log10) [3]	FACS-Seq fitted mean (log10) [4]
UUCACA	0.502 ± 0.065	1.9 ± 0.051	1.88 ± 0.05	0.58 ± 0.026
GUCCGG	0.2204 ± 0.002	1.9355 ± 0.0013	1.64 ± 0.081	0.524 ± 0.11
GUCAGC	0.371 ± 0.0086	1.925 ± 0.011	1.79 ± 0.018	0.605 ± 0.059
GUCAGA	-0.213 ± 0.0037	1.897 ± 0.0028	1.74 ± 0.042	-0.0451 ± 0.017
GUCAGG	0.326 ± 0.071	1.858 ± 0.016	1.46 ± 0.042	0.67 ± 0.0068
GUCAGU	0.34 ± 0.024	1.94 ± 0.023	1.833 ± 0.0092	0.492 ± 0.11
UUCCUG	-0.284 ± 0.019	1.93 ± 0.041	1.756 ± 0.0019	-0.379 ± 0.12
GUAGAG	0.148 ± 0.015	1.83 ± 0.073	1.31 ± 0.16	0.627 ± 0.068
GUAGAA	0.2674 ± 0.0022	1.89 ± 0.03	1.723 ± 0.0046	0.342 ± 0.023
GUCAAG	0.65 ± 0.074	1.85 ± 0.077	1.46 ± 0.07	0.667 ± 0.011
GUCAAA	0.456 ± 0.0096	1.91 ± 0.047	1.733 ± 0.0061	0.532 ± 0.0073
GUAGCC	0.609 ± 0.017	1.982 ± 0.014	1.83 ± 0.02	0.678 ± 0.059
GUAGCU	-0.279 ± 0.094	1.98 ± 0.03	1.88 ± 0.063	-0.197 ± 0.0065
GUAGGG	0.143 ± 0.034	1.86 ± 0.055	1.49 ± 0.037	0.5302 ± 0.0037
GUAGGU	0.5146 ± 0.0047	1.95 ± 0.02	1.79 ± 0.034	0.578 ± 0.11
GUAGGC	0.126 ± 0.003	1.87 ± 0.043	1.38 ± 0.043	0.611 ± 0.02
CUACUA	0.522 ± 0.16	1.9 ± 0.046	1.78 ± 0.02	0.51 ± 0.059
AUCCAG	0.222 ± 0.062	1.92 ± 0.034	1.55 ± 0.096	0.446 ± 0.052
AUCCAA	0.618 ± 0.059	1.923 ± 0.016	1.79 ± 0.07	0.708 ± 0.06
AUCCAU	0.676 ± 0.075	1.96 ± 0.015	1.86 ± 0.032	0.6901 ± 0.0038
UUACCG	-0.405 ± 0.057	1.899 ± 0.011	1.75 ± 0.052	-0.0713 ± 0.036
GUCGGC	0.485 ± 0.026	1.91 ± 0.025	1.68 ± 0.042	0.81 ± 0.023
GUCGGG	0.355 ± 0.068	1.882 ± 0.0031	1.58 ± 0.12	-0.0447 ± 0.038
GUCGGA	-0.358 ± 0.082	1.98 ± 0.055	1.79 ± 0.027	-0.116 ± 0.049
